Article PMC11929605 (Nature, 2024)

B1: human CaSR (residues 20-894), wild-type construct FLAG-CaSR (receptor, UniProt P41180 20-894, looked up)
chain: YGPDQRAQKKGDIILGGLFPIHFGVAAKDQDLKSRPESVECIRYNFRGFRWLQAMIFAIEEINSSPALLPNLTLGYRIFDTCNTVSKALEATLSFVAQNKIDSLNLDEFCNCSEHIPSTIAVVGATGSGVSTAVANLLGLFYIPQVSYASSSRLLSNKNQFKSFLRTIPNDEHQATAMADIIEYFRWNWVGTIAADDDYGRPGIEKFREEAEERDICIDFSELISQYSDEEEIQHVVEVIQNSTAKVIVVFSSGPDLEPLIKEIVRRNITGKIWLASEAWASSSLIAMPQYFHVVGGTIGFALKAGQIPGFREFLKKVHPRKSVHNGFAKEFWEETFNCHLQEGAKGPLPVDTFLRGHEESGDRFSNSSTAFRPLCTGDENISSVETPYIDYTHLRISYNVYLAVYSIAHALQDIYTCLPGRGLFTNGSCADIKKVEAWQVLKHLRHLNFTNNMGEQVTFDECGDLVGNYSIINWHLSPEDGSIVFKEVGYYNVYAKKGERLFINEEKILWSGFSREVPFSNCSRDCLAGTRKGIIEGEPTCCFECVECPDGEYSDETDASACNKCPDDFWSNENHTSCIAKEIEFLSWTEPFGIALTLFAVLGIFLTAFVLGVFIKFRNTPIVKATNRELSYLLLFSLLCCFSSSLFFIGEPQDWTCRLRQPAFGISFVLCISCILVKTNRVLLVFEAKIPTSFHRKWWGLNLQFLLVFLCTFMQIVICVIWLYTAPPSSYRNQELEDEIIFITCHEGSLMALGFLIGYTCLLAAICFFFAFKSRKLPENFNEAKFITFSMLIFFIVWISFIPAYASTYGKFVSAVEVIAILAASFGLLACIFFNKIYIILFKPSRNTIEEVRCSTAAHAFKVAARATLRRSNV
B2: WT human Gαi3 (natural protein)
chain: MGCTLSAEDKAAVERSKMIDRNLREDGEKAAKEVKLLLLGAGESGKSTIVKQMKIIHEDGYSEDECKQYKVVVYSNTIQSIIAIIRAMGRLKIDFGEAARADDARQLFVLAGSAEEGVMTPELAGVIKRLWRDGGVQACFSRSREYQLNDSASYYLNDLDRISQSNYIPTQQDVLRTRVKTTGIVETHFTFKDLYFKMFDVGGQRSERKKWIHCFEGVTAIIFCVALSDYDLVLAEDEEMNRMHESMKLFDSICNNKWFTETSIILFLNKKDLFEEKIKRSPLTICYPEYTGSNTYEEAAAYIQCQFEDLNRRKDTKEIYTHFTCATDTKNVQFVFDAVTDVIIKNNLKECGLY
modifications: lipidated N-terminus

Experiments:
cryo-EM structure = biological target: the molecule itself; test: cryo-EM structure
[1] = biological target: B1; test: cryo-EM structure

Binder	stoichiometry N (cryo-EM structure)	binding result [1]
B1	2	
B2		binds
